{
  "source": "IntAct's records for PubMed 18477474",
  "parents": {"B1": {"name": "Ras-related protein Rab-38 (Mus musculus), Q8QZZ8 (parent)", "chain": "MQTPHKEHLYKLLVIGDLGVGKTSIIKRYVHQNFSSHYRATIGVDFALKVLHWDPETVVRLQLWDIAGQERFGNMTRVYYREAMGAFIVFDVTRPATFEAVAKWKNDLDSKLTLPNGKPVSVVLLANKCDQGKDVLMNNGLKMDQFCKEHGFVGWFETSAKENINIDEASRCLVKHILANECDLLESIEPDIVKPHLTSPKVVSCSGCAKS", "partner": "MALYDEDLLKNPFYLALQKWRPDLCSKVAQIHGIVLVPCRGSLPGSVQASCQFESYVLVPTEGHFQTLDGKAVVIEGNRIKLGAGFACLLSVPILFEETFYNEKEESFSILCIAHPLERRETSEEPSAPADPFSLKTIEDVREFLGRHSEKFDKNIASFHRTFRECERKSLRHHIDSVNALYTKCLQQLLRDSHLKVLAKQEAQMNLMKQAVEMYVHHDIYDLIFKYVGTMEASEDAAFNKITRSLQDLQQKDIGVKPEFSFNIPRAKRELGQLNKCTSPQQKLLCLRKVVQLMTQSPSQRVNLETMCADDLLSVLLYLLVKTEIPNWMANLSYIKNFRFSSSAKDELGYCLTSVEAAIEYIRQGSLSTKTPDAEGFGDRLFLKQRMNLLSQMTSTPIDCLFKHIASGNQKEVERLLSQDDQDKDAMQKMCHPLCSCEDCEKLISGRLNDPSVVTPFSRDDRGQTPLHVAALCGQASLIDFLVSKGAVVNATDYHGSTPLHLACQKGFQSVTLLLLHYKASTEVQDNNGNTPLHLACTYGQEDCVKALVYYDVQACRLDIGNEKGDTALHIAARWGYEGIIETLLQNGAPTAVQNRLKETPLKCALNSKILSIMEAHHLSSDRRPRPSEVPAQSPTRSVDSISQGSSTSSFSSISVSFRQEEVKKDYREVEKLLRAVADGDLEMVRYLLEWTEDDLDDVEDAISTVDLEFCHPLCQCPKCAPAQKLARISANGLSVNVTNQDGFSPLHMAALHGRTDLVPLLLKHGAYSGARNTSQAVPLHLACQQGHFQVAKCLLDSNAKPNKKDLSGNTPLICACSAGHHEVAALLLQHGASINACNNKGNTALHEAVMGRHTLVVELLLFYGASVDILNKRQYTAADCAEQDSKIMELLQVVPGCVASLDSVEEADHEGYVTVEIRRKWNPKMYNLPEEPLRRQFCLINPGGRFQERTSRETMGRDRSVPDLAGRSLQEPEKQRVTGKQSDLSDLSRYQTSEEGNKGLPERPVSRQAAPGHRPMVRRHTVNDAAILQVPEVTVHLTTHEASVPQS"}},
  "data": [
    {"variants_of": "B1", "conditions": "with anr27_mouse Ankrd27, Q3UMR0", "values": [
      {"variant": "MQTPHKEHLYKLLVIGDLGVGKNSIIKRYVHQNFSSHYRATIGVDFALKVLHWDPETVVRLQLWDIAGQERFGNMTRVYYREAMGAFIVFDVTRPATFEAVAKWKNDLDSKLTLPNGKPVSVVLLANKCDQGKDVLMNNGLKMDQFCKEHGFVGWFETSAKENINIDEASRCLVKHILANECDLLESIEPDIVKPHLTSPKVVSCSGCAKS", "note": "[T23N]", "effect of a mutation on the interaction": "disrupting interaction"}
    ]}
  ]
}
